Results: PMC3601957, “Structural Basis of Rap Phosphatase Inhibition by Phr Peptides” (PLoS Biology, 2013)
Numbering of substitutions follows the chain as printed. Blank lines part the entries; values can stand above or below the molecule they belong to. No end group written: not given here.

Tests used:
RapF [1] = biological target: T1, RapF (Bacillus subtilis, UniProt P71002); format: binding, B. subtilis; details: wild-type RapF, at 12 µM PhrF; native PAGE titration
T1 construct: 6xHis (N, cleaved yes); made in house; host or cells: Escherichia coli BL21 RIL
Description: (§1) The formation of complexes was analyzed by native polyacrylamide gel electrophoresis (Native-PAGE), similarly to that described by Salinas et al.. Briefly, mixtures of RapF (WT and mutants), ComA (10 µM of each protein), or Phr peptides (0.5 mM), as indicated, were incubated in buffer A (200 mM NaCl, 50 mM Tris-HCl [pH 8.0]) at room temperature for 30 min, separated by Native-PAGE and visualized by Coomassie blue staining. The peptide binding constants for RapF, RapF^D194A, RapF^N227A, RapF^E303K, and RapF^E303A were calculated following the same approach. Reaction mixtures containing 20 µg of protein and peptide concentrations ranging from 50 nM to 1.2 mM in 20 µl of buffer A were incubated for 15 min at room temperature. Reactions were separated in 8% acrylamide native gel (100 V, 4°C, 2 h) and visualized by Coomassie blue staining. Free protein was quantified using the Multigauge V2.1 software (Fujifilm) and the fraction of bound protein was estimated by subtracting free protein from the input protein. Data were plotted as a fraction of the Phr bound protein versus the Phr concentration, and were analyzed by the Graphpad prism software. The midpoint of the transition was taken as the apparent Kd. To calculate the Kd values, at least three independent experiments were analyzed.

RapF^D194A [2] = biological target: T2, RapF^D194A (Bacillus subtilis, UniProt P71002, D194A); test: Gel shift (native PAGE) titration, apparent Kd, RapF^D194A; format: binding, B. subtilis
T2 construct: 6xHis (N, cleaved yes); made in house; host or cells: Escherichia coli BL21 RIL
Description: as §1

RapF^N227A [3] = biological target: T3, RapF^N227A (Bacillus subtilis, UniProt P71002, N227A); test: Gel shift (native PAGE) titration, apparent Kd, RapF^N227A; format: binding, B. subtilis
T3 construct: 6xHis (N, cleaved yes); made in house; host or cells: Escherichia coli BL21 RIL
Description: as §1

RapF^E303A [4] = biological target: T4, RapF^E303A (Bacillus subtilis, UniProt P71002, E303A); test: Gel shift (native PAGE) titration, apparent Kd, RapF^E303A; format: binding, B. subtilis
T4 construct: 6xHis (N, cleaved yes); made in house; host or cells: Escherichia coli BL21 RIL
Description: as §1

RapF [5] = biological target: T5, RapF (B. subtilis, UniProt P71002 1-381); test: native gel or EMSA; Native-PAGE, Coomassie stained; RapF (WT or mutant) and ComA 10 µM each, Phr peptides 0.5 mM; buffer A (200 mM NaCl, 50 mM Tris-HCl pH 8.0), room temperature, 30 min; details: both partners purified
T5 construct: RapF of Bacillus subtilis, amplified from genomic DNA and cloned in pPROEX-HTa; The text speaks of residues up to Val381, which fits the whole protein; also called wild-type RapF; native RapF; source: E. coli BL21 RIL, purified (HisTrap, TEV digestion, Superdex 200); not shown: His6, N-terminal, cleaved
T5 sequence: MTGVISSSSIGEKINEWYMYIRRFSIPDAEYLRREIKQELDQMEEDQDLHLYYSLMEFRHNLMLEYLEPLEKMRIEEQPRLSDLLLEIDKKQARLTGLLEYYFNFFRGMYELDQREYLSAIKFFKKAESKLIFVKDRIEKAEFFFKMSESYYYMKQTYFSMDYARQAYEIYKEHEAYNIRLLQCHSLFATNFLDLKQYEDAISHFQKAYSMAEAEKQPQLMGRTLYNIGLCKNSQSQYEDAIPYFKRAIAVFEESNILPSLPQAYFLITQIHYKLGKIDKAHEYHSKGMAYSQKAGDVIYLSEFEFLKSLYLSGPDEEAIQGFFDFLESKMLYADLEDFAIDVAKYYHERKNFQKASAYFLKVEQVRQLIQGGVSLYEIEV

RapF^D194A [6] = biological target: T6, RapF^D194A (B. subtilis, UniProt P71002 1-381, D194A); test: as above; details: both partners purified
T6 construct: RapF of Bacillus subtilis with Asp194 changed to Ala, made from pPROEX-RapF by site-directed mutagenesis; Same construct as m1 with the point mutation; also called RapF Asp194Ala; source: E. coli BL21 RIL, purified as native RapF; not shown: His6, N-terminal, cleaved
T6 sequence: T5 sequence with D194A

RapF^E303K = biological target: T7, RapF^E303K (B. subtilis, UniProt P71002 1-381, E303K); test: as above; details: both partners purified
T7 construct: RapF of Bacillus subtilis with Glu303 changed to Lys, made from pPROEX-RapF by site-directed mutagenesis; Same construct as m1 with the point mutation; also called RapF Glu303Lys; source: E. coli BL21 RIL, purified as native RapF; not shown: His6, N-terminal, cleaved
T7 sequence: T5 sequence with E303K

RapF^E303A [7] = biological target: T8, RapF^E303A (B. subtilis, UniProt P71002 1-381, E303A); test: as above; details: both partners purified
T8 construct: RapF of Bacillus subtilis with Glu303 changed to Ala, made from pPROEX-RapF by site-directed mutagenesis; Same construct as m1 with the point mutation; also called RapF Glu303Ala; source: E. coli BL21 RIL, purified as native RapF; not shown: His6, N-terminal, cleaved
T8 sequence: T5 sequence with E303A

RapF^N227A [8] = biological target: T9, RapF^N227A (B. subtilis, UniProt P71002 1-381, N227A); test: as above; details: both partners purified
T9 construct: RapF of Bacillus subtilis with Asn227 changed to Ala, made from pPROEX-RapF by site-directed mutagenesis; Same construct as m1 with the point mutation; also called RapF Asn227 to Ala mutant; RapF^N277A (misprint in the text); source: E. coli BL21 RIL, purified as native RapF; not shown: His6, N-terminal, cleaved
T9 sequence: T5 sequence with N227A

T3 sequence (P71002 whole entry N227A): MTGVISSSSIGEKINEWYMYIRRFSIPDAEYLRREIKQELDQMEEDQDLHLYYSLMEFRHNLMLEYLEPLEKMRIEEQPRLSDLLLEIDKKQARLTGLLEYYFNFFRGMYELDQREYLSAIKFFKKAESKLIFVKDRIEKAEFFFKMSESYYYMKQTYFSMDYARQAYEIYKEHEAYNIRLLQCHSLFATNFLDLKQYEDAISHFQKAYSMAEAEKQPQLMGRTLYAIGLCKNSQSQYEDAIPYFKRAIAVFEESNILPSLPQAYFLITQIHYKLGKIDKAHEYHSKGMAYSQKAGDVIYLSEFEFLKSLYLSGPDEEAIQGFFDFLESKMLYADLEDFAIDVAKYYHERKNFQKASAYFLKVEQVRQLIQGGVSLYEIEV
T2 sequence (P71002 whole entry D194A): as the sequence (P71002 whole entry N227A) above, with D194A, A227N counted along it

Molecule: QRGMI [PhrF]
- RapF present in the free form (RapF [1]): less than 30%
- Kd (RapF^D194A [2]): > 1200 µM
- Kd (RapF^N227A [3]): > 1200 µM

Molecule: ERGMT [PhrC]
- Kd (RapF^E303A [4]): > 1200 µM

- binding result (RapF [5]): binds
- binding result (RapF^D194A [6]): binds
- binding result (RapF^E303K): binds
- binding result (RapF^E303A [7]): binds
- binding result (RapF^N227A [8]): binds
B1: ComA (natural protein, B. subtilis, UniProt P14204 1-214, looked up)
chain: MKKILVIDDHPAVMEGTKTILETDSNLSVDCLSPEPSEQFIKQHDFSSYDLILMDLNLGGEVNGMELSKQILQENPHCKIIVYTGYEVEDYFEEAIRAGLHGAISKTESKEKITQYIYHVLNGEILVDFAYFKQLMTQQKTKPAPSSQKEQDVLTPRECLILQEVEKGFTNQEIADALHLSKRSIEYSLTSIFNKLNVGSRTEAVLIAKSDGVL
notes: also called RR ComA; full-length ComA; source: E. coli BL21 RIL, purified (HisTrap, TEV digestion, Superdex 200); not shown: His6, N-terminal, cleaved
